Data on one variant can be found in IntAct's records for PubMed 21209328.

The labels stand for the following.
B1: PEP-dependent dihydroxyacetone kinase, ADP-binding subunit DhaL (Escherichia coli (strain K12)), P76014 (parent)
chain: MSLSRTQIVNWLTRCGDIFSTESEYLTGLDREIGDADHGLNMNRGFSKVVEKLPAIADKDIGFILKNTGMTLLSSVGGASGPLFGTFFIRAAQATQARQSLTLEELYQMFRDGADGVISRGKAEPGDKTMCDVWVPVVESLRQSSEQNLSVPVALEAASSIAESAAQSTITMQARKGRASYLGERSIGHQDPGATSVMFMMQMLALAAKE
partner: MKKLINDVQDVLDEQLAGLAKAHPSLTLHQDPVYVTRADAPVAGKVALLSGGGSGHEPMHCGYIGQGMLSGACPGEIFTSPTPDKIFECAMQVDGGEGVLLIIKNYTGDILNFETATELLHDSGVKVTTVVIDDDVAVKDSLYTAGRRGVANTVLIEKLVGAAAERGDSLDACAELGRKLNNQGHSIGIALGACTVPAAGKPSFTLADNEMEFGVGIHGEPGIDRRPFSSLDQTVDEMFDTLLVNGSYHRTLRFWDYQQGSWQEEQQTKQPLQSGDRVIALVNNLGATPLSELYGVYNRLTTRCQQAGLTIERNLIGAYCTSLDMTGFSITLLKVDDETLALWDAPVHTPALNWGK

This experiment covers variants of B1. Particulars: with dhak_ecoli dhaK.
MSLSRTQIVNWLTRCGDIFSTESEYLTGLDREIGDADHGLNMNRGFSKVVEKLPAIADKDIGFILKNTGMTLLSSVGGASGPLFGTFFIRAAQATQARQSLTLEELYQMFRDGADGVISRGKAEPGDKTMCDVWVPVVESLRQSSEQNLSVPVALEAASSIAESAAQSTITMQARKGEASYLGERSIGHQDPGATSVMFMMQMLALAAKE [R178E]: the “effect of a mutation on the interaction” value was “disrupting interaction strength”.
